The chains are these.
B1: GST–Tks5-PX [not stated] / FLAG–Rab40b [not stated] (parent complex)
chain 1: YCVQDATVVDVEKRRNPSKHYVYIINVTWSDSTSQTIYRRYSKFFDLQMQLLDKFPIEGGQKDPKQRIIPFLPGKILFRRSHIRDVAVKRLKPIDEYCRALVRLPPHISQCDEVFRFFEARPEDV
chain 2: MSALGSPVRAYDFLLKFLLVGDSDVGKGEILASLQDGAAESPYGHPAGIDYKTTTILLDGRRVKLQLWDTSGQGRFCTIFRSYSRGAQGVILVYDIANRWSFDGIDRWIKEIDEHAPGVPKILVGNRLHLAFKRQVPTEQAQAYAERLGVTFFEVSPLCNFNITESFTELARIVLLRHGMDRLWRPSKVLSLQDLCCRAVVSCTPVHLVDKLPLPIALRSHLKSFSMANGLNARMMHGGSYSLTTSSTHKRSSLRKVKLVRPPQSPPKNCTRNSCKIS

Variants of B1 are the subject of the assay. Put plainly: glutathione bead pulldown, quantified immunoblot; three independent experiments; parent: 1; read off a plot.
As for chain 1 YCVQDATVVDVEKRRNPSKHYVYAINVTWSDSTSQTIYRRYSKFFDLQMQLLDKFPIEGGQKDPKQRIIPFLPGKILFRRSHIRDVAVKRLKPIDEYCRALVRLPPHISQCDEVFRFFEARPEDV, the response was about 0.86 Arbitrary Units.
As for chain 1 YCVQDATVVDVEKRRNPSKHAVYIINVTWSDSTSQTIYRRYSKFFDLQMQLLDKFPIEGGQKDPKQRIIPFLPGKILFRRSHIRDVAVKRLKPIDEYCRALVRLPPHISQCDEVFRFFEARPEDV, the figure is about 0.57 Arbitrary Units.

The record behind these values is article PMC5201011 (2016).
